Measurements as given in patent US20230340152A1 (published 2023).

Experiments:
Human CD73 ECD = target: T1, Human CD73 ECD (human, UniProt P21589 27-549); assay: SPR (ProteOn), antibody captured by anti-human Fc, CD73 ECD in mobile phase
T1 construct: Biotinylated in some assays; also called human CD73 extracellular domain; huCD73
T1 sequence: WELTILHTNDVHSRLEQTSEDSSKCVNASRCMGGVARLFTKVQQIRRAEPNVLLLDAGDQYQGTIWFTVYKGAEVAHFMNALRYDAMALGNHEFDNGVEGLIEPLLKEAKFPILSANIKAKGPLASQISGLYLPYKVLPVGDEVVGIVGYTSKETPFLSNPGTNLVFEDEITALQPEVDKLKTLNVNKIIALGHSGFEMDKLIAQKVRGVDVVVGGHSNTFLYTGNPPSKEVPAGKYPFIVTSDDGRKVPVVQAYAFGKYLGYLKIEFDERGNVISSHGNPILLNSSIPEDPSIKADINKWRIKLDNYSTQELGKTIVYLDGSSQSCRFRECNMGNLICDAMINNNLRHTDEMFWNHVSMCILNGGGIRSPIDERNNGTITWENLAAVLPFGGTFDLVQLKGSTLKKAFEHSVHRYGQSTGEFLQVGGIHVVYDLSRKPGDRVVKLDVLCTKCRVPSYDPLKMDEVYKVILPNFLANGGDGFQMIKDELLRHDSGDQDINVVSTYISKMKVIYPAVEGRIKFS
Text: (§1) A ProteOn XPR36 instrument was used to characterize binding of MEDI9447 to human, murine, and cynomolgus CD73 ECD. MEDI9447 was affinity-captured using an anti-human Fc antibody. CD73 ECD was in the mobile phase. The association and dissociation of CD73 to MEDI9447 could be accurately described with the Langmuir 1: 1 model.

Murine CD73 ECD = target: T2, Murine CD73 ECD (murine, UniProt Q61503 29-551, limits assumed); assay: as above
T2 construct: extracellular domain; In-house recombinant ECD; also called murine CD73 extracellular domain; muCD73
T2 sequence (looked up): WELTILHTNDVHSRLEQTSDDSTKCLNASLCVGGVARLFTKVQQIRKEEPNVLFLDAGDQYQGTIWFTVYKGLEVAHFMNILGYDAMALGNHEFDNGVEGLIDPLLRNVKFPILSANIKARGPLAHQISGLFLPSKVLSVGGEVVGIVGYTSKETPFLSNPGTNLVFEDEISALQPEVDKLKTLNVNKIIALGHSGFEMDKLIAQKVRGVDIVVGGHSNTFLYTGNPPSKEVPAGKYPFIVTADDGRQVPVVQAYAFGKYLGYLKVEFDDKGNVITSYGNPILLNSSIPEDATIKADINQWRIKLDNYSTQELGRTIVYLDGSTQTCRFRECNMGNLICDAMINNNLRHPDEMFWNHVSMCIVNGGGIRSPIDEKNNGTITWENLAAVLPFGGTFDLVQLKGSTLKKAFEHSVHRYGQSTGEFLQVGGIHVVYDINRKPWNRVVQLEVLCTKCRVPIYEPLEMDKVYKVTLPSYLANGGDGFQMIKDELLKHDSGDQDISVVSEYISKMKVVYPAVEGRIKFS
Text: as §1

Cynomolgus CD73 ECD = target: T3, Cynomolgus CD73 ECD (cynomolgus, UniProt A0A2K5V5U7 27-549); assay: as above
T3 construct: extracellular domain; also called cyno CD73
T3 sequence: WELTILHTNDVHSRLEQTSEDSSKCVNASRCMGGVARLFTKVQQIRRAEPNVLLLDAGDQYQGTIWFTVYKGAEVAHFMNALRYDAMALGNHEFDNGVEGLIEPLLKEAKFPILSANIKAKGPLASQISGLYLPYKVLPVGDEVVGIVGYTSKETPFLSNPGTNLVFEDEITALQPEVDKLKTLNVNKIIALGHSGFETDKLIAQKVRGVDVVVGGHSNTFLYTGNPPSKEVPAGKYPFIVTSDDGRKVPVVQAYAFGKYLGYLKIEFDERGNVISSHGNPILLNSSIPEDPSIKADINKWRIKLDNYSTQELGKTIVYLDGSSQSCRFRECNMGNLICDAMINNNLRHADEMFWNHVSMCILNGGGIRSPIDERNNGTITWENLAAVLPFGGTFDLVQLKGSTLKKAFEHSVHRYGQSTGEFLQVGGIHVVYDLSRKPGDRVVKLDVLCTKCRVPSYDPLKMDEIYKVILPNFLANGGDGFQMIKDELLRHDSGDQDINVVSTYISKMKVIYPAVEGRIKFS
Text: as §1

[1] = target: T4, Murine CD73 on cells (4T1, Jurkat mCD73 knock-in) (murine, UniProt Q61503 29-551); assay: flow cytometry, Jurkat (mCD73 knock-in) / Jurkat
T4 construct: whole, on cells; also called 4T1 (murine)
T4 sequence (looked up): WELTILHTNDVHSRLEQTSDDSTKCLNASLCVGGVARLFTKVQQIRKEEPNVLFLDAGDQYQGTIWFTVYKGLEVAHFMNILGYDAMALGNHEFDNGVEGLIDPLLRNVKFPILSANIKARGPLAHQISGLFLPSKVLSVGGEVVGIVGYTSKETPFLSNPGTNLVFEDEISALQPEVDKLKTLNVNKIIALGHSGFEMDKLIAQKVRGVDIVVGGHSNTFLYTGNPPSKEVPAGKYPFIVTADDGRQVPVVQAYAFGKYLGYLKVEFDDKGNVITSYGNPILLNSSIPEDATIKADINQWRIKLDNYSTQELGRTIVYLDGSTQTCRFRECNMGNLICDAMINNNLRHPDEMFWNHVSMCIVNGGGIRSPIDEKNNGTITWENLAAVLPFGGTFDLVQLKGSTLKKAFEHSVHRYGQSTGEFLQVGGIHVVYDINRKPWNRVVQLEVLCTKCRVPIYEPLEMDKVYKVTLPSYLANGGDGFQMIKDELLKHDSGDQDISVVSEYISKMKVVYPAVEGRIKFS

[2] = target: T5, Human CD73 on cells (MDA-MB-231, Jurkat CD73 knock-in, NCI-H322) (human, UniProt P21589 27-549); assay: flow cytometry, MDA-MB-231 / MDA-MB-231(CD73-shRNA)
T5 construct: GPI-anchored native protein; also called native human CD73
T5 sequence: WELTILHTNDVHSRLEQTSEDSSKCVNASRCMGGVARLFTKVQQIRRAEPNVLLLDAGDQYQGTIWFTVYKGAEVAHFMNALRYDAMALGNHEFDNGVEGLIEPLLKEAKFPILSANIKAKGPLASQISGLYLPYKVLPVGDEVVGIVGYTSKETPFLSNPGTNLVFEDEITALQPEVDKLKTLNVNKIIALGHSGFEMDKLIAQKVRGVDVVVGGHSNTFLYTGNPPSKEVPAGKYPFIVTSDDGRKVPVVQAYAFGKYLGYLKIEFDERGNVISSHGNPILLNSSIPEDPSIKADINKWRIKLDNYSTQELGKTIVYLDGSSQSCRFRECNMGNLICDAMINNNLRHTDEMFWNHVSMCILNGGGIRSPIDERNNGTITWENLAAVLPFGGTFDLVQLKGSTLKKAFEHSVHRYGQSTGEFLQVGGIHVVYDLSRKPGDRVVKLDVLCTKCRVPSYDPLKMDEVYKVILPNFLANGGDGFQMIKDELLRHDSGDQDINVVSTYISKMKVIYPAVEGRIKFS

[3] = target: T6, Cynomolgus CD73 on MK-1 cells (cynomolgus, UniProt A0A2K5V5U7 27-549); assay: flow cytometry, MK-1 cells
T6 construct: whole, on cells; also called MK-1 (cyno)
T6 sequence: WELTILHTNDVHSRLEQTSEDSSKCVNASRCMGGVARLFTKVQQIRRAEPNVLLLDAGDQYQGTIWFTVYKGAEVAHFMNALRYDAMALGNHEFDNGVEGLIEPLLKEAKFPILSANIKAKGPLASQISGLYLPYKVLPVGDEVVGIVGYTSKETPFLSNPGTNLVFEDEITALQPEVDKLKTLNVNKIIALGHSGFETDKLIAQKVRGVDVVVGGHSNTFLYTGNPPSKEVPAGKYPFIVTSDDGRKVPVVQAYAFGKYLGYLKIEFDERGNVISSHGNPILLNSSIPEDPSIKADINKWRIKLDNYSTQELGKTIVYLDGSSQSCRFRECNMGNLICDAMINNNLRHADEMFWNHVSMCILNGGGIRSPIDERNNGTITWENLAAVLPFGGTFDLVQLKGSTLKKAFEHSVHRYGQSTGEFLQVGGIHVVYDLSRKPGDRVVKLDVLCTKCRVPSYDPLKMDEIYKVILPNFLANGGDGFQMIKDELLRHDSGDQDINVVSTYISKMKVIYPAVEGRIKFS
Experimental: Binding of MEDI9447 to native CD73 expressed on human, murine, and cynomolgus monkey cell lines was characterized by flow cytometry. The cells were incubated with various concentrations of MEDI9447 and antibody binding was monitored with and fluorophore-labeled anti-human Fc antibody. A plot of the median fluorescence intensity as a function of the MEDI9447 concentration was fitted nonlinearly using a one-site binding isotherm model to calculate the equilibrium dissociation constant.

B1: MEDI9447 (antibody, human IgG1, lambda, V domains shown)
VH: EVQLLESGGGLVQPGGSLRLSCAASGFTFSSYAYSWVRQAPGKGLEWVSAISGSGGRTYYADSVKGRFTISRDNSKNTLYLQMNSLRAEDTAVYYCARLGYGRVDEWGRGTLVTVSS
VL: QSVLTQPPSASGTPGQRVTISCSGSLSNIGRNPVNWYQQLPGTAPKLLIYLDNLRLSGVPDRFSGSKSGTSASLAISGLQSEDEADYYCATWDDSHPGWTFGGGTKLTVLG
notes: Human IgG1-TM (L234F, L235E, P331S), lambda light chain; also called clone 10.3 antibody; 73combo3
Q: For B1, which koff (Human CD73 ECD) is on record?
A: 1.06e-05 s⁻¹

Q: And the kon (Human CD73 ECD)?
A: 2.57e+06 M⁻¹ s⁻¹

Q: What about the koff (Murine CD73 ECD) of the same binder?
A: 2.32e-06 s⁻¹

Q: And the kon (Murine CD73 ECD)?
A: 2.41e+06 M⁻¹ s⁻¹

Q: What about the Kd (Cynomolgus CD73 ECD) of the same binder?
A: 6.5 pM

Q: What about the koff (Cynomolgus CD73 ECD) of the same binder?
A: 1.76e-05 s⁻¹

Q: And the kon (Cynomolgus CD73 ECD)?
A: 2.71e+06 M⁻¹ s⁻¹

Q: What about the “Mean Fluorescence Intensity Ratio (MFIR)” value [1] of the same binder?
A: 57.1

Q: What about the “Mean Fluorescence Intensity Ratio (MFIR)” value [2] of the same binder?
A: 3.5

Q: And the Kd [3]?
A: 84 pM
